Data as given in FireProtDB (doi:10.1021/bi010636i).
Values joined by “and” are separate entries in the source; they are usually repeats but may differ in a detail not shown here. Identical values can stand only once.

Conditions: pH 7, CD, transition: 2, reversible: yes, whole UniProt chain shown; for denaturant midpoint (higher = more stable): 25 °C, GdnHCl; for Tm: Thermal
[1] = Rattus norvegicus, potassium phosphate buffer

B1: Cytochrome b5 wild type, P00171 (protein)
chain: MAEESSKAVKYYTLEEIQKHNNSKSTWLILHYKVYDLTKFLEEHPGGEEVLREQAGGDATENFEDVGHSTDARELSKTFIIGELHPDDRSKITKPSESIITTIDSNPSWWTNWLIPAISALFVALIYHLYTSEN
For B1, the “denaturant midpoint (higher = more stable)” value (Bos taurus, MOPS buffer) was 2.99 M and 3.05 M and the Tm (Bos taurus, MOPS buffer) was 73.1 °C.

B2: Cytochrome b5 type B wild type, P04166 (protein)
chain: MATPEASGSGRNGQGSDPAVTYYRLEEVAKRNTAEETWMVIHGRVYDITRFLSEHPGGEEVLLEQAGADATESFEDVGHSPDAREMLKQYYIGDVHPNDLKPKDGDKDPSKNNSCQSSWAYWIVPIVGAILIGFLYRHFWADSKSS
With B2 the “denaturant midpoint (higher = more stable)” value [1] was 4.09 M and 4.03 M and the Tm [1] was 87 °C.
